Values quoted from earlier work, collected in article PMC7226344.

Key:
Cav3.2 (Homo sapiens) = Cav3.2 (Homo sapiens) (UniProt O95180)
[1] = molecular target: Cav3.1 (Rattus norvegicus) (UniProt O54898)
Chain of UniProt O54898 (O54898 whole entry): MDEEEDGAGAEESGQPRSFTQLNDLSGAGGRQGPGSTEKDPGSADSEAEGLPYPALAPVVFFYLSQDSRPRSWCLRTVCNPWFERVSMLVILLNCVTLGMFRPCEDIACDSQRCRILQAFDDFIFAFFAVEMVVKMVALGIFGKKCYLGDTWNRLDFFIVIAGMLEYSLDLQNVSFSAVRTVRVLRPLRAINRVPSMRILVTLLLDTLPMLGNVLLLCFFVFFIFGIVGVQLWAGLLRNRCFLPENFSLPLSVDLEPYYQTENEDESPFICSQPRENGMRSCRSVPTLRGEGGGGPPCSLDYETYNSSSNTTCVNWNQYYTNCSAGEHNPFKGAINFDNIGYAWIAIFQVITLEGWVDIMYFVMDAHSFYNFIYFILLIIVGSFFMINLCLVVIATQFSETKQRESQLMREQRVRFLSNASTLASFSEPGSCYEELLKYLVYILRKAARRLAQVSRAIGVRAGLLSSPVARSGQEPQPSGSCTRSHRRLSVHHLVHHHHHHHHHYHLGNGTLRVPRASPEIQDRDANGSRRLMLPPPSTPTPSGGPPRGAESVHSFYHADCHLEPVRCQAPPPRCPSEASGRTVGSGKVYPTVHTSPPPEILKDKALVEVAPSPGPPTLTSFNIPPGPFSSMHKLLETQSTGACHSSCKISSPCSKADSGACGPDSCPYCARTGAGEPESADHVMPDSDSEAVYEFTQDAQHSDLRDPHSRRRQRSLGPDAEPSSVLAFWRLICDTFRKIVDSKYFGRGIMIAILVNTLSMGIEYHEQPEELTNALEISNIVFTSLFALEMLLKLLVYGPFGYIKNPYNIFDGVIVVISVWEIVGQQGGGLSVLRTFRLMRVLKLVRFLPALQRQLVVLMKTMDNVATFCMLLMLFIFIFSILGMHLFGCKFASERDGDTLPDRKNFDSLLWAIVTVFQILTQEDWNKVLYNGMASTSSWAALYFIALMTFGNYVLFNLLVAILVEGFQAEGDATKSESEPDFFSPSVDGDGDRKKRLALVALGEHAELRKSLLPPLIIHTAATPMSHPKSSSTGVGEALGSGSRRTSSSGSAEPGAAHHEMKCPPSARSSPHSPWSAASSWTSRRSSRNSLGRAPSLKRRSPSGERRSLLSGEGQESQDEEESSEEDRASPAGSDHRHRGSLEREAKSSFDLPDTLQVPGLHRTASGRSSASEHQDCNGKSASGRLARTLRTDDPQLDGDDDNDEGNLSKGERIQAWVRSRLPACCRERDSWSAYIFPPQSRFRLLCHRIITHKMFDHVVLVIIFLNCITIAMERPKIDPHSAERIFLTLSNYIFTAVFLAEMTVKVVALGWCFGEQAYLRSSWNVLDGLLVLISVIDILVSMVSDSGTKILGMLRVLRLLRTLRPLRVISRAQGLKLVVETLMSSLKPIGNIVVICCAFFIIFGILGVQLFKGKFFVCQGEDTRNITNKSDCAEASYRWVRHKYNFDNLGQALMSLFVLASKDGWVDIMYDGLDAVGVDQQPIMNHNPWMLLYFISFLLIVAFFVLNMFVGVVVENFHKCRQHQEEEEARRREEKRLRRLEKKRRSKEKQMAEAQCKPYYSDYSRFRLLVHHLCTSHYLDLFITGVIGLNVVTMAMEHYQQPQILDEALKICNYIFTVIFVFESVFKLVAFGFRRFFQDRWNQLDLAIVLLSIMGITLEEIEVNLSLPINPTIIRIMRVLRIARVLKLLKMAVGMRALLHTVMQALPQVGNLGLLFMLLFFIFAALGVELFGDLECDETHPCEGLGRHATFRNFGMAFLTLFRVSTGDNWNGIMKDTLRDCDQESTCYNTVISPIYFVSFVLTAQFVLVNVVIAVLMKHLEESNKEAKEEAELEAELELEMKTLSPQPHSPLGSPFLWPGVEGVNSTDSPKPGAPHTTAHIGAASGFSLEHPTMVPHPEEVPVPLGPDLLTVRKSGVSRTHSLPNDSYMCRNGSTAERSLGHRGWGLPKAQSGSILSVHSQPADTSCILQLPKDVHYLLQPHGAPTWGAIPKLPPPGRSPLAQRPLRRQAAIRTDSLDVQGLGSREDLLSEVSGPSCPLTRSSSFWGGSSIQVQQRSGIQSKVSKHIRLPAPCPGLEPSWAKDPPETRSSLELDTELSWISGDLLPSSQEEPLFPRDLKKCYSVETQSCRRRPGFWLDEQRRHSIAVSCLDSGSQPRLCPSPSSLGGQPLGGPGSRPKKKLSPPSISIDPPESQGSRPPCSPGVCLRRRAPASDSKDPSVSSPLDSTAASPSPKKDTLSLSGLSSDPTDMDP

Chain of UniProt O95180 (O95180 whole entry): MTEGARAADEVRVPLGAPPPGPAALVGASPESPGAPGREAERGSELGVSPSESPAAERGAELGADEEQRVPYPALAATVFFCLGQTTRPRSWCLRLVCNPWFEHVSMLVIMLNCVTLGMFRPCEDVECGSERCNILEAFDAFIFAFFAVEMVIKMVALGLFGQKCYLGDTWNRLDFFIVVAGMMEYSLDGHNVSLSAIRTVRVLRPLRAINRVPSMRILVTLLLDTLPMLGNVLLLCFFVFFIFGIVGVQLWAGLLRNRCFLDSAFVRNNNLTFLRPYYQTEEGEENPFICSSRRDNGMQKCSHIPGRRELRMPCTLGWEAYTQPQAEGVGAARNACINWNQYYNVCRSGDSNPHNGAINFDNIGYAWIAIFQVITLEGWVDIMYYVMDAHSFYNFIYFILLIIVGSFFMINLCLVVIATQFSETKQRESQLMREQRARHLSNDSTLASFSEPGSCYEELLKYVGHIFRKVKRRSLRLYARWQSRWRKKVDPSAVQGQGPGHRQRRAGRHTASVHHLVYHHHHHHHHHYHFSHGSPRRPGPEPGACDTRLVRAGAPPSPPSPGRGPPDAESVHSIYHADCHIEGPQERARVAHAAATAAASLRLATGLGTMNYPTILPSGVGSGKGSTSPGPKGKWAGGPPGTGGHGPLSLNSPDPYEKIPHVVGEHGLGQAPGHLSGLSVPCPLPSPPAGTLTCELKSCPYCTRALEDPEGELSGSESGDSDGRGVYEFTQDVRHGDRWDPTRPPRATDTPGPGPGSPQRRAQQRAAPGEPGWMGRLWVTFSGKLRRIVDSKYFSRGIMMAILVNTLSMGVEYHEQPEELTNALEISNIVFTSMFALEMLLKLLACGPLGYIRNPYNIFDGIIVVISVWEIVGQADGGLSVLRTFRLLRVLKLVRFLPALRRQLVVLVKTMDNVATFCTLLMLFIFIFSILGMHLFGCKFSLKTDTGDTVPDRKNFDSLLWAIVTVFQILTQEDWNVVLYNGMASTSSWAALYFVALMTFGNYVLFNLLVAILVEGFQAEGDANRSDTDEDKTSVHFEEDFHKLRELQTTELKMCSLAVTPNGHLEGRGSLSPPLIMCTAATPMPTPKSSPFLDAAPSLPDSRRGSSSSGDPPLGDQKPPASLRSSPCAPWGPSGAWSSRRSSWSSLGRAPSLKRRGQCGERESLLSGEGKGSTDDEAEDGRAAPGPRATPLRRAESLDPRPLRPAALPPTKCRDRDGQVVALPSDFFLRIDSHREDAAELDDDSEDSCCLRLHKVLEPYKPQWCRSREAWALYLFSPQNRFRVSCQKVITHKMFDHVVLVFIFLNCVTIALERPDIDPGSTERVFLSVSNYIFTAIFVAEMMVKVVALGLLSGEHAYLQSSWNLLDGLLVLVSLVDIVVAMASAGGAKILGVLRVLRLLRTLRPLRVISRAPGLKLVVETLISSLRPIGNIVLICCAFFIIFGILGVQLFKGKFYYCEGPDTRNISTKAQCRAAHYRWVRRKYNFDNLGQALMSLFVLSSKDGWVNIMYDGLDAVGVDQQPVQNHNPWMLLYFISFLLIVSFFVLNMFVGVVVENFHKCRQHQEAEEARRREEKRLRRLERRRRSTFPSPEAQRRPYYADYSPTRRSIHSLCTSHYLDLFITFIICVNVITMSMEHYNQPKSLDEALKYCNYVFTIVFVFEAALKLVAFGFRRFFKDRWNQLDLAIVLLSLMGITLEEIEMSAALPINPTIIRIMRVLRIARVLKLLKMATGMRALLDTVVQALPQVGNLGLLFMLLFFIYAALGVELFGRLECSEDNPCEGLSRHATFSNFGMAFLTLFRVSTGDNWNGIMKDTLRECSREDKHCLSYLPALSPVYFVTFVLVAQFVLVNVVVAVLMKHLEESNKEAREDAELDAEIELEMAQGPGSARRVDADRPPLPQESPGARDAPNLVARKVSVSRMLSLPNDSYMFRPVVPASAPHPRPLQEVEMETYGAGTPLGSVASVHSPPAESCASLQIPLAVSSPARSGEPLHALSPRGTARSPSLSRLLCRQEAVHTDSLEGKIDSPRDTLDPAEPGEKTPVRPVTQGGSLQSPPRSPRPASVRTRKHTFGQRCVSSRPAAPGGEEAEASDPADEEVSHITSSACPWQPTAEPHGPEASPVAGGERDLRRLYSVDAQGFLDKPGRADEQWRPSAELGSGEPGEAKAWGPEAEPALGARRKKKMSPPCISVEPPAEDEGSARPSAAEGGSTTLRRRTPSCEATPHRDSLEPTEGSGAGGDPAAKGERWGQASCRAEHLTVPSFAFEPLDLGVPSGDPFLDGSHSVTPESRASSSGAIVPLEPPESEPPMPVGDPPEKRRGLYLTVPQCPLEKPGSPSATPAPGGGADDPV

kurtoxin (from UniProt P58910)
Kd (Cav3.2 (Homo sapiens)): 61 nM
Kd [1]: 15 nM
